In paper doi:10.1101/2020.02.18.954511 (bioRxiv, 2020):
Where two headings read alike, the source gives them in different places.

T1: diol dehydratase PduCDE (Salmonella enterica, UniProt P37450 1-554; O31041 1-224; O31042 1-173)
T1 sequence (looked up) 1: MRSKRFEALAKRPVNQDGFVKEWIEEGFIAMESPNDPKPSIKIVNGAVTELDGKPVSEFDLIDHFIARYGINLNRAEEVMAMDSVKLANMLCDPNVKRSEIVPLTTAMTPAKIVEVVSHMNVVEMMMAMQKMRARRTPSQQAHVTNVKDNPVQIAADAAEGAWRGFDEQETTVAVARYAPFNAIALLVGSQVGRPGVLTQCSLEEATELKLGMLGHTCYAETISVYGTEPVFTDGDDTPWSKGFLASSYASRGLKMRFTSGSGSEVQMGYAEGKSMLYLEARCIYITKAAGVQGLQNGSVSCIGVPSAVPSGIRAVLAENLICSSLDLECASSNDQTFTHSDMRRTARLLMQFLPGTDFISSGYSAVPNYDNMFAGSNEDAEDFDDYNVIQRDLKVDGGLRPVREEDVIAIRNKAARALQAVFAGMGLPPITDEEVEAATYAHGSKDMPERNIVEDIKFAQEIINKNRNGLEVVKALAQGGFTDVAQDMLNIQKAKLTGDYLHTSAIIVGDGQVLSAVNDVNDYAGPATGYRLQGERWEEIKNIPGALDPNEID
T1 sequence (looked up) 2: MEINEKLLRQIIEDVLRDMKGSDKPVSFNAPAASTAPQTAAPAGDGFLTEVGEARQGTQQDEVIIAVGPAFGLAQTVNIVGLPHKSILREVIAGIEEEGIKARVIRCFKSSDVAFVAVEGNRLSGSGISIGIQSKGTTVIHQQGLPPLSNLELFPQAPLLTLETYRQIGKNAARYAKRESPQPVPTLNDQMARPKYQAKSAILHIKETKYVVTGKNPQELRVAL
T1 sequence (looked up) 3: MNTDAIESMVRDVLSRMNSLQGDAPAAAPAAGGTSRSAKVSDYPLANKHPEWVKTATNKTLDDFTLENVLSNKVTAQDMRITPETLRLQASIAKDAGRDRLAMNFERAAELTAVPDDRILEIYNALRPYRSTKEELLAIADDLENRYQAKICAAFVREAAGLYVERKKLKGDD

B1: shell protein PduB’M38L (natural protein, Salmonella enterica, UniProt P37449 1-270, looked up)
chain: MSSNELVEQIMAQVIARVATPEQQAIPGQPQPIRETALAEKSCSLTEFVGTAIGDTLGLVIANVDTALLDAMKLEKRYRSIGILGARTGAGPHIMAADEAVKATNTEVVSIELPRDTKGGAGHGSLIILGGNDVSDVKRGIEVALKELDRTFGDVYGNEAGHIELQYTARASYALEKAFGAPIGRACGIIVGAPASVGVLMADTALKSANVEVVAYSSPAHGTSFSNEAILVISGDSGAVRQAVTSAREIGKTVLATLGSEPKNDRPSYI
B2: shell protein PduB (N-terminal truncated) (natural protein, Salmonella enterica, UniProt P37449 38-270, looked up)
chain: MAEKSCSLTEFVGTAIGDTLGLVIANVDTALLDAMKLEKRYRSIGILGARTGAGPHIMAADEAVKATNTEVVSIELPRDTKGGAGHGSLIILGGNDVSDVKRGIEVALKELDRTFGDVYGNEAGHIELQYTARASYALEKAFGAPIGRACGIIVGAPASVGVLMADTALKSANVEVVAYSSPAHGTSFSNEAILVISGDSGAVRQAVTSAREIGKTVLATLGSEPKNDRPSYI

Key:
diol dehydratase PduCDE [1] = target: T1, diol dehydratase PduCDE; experiment: time-resolved fluorescence anisotropy
dynamic light scattering = target: the molecule itself; experiment: dynamic light scattering
diol dehydratase PduCDE [2] = target: T1, diol dehydratase PduCDE; experiment: time-resolved fluorescence anisotropy; remark: listed apart in the source

| Binder | binding result (diol dehydratase PduCDE [1]) | binding result (dynamic light scattering) | binding result (diol dehydratase PduCDE [2]) |
| --- | --- | --- | --- |
| B1 | binds |  |  |
| B2 |  | binds | binds |
